What was measured:
[1] = system: Lactococcus lactis subsp. lactis (strain IL1403); test: Antimicrobial spread-plate (CFU) killing assay, fermenting L. lactis; type: cell-based; conditions: human lactoferrin 0.062 µM; fermentative conditions; relative to untreated control
Description: Microbial susceptibility to the peptides was determined in a spread-plate assay as described previously. Briefly, cell suspensions (10^6 cells/mL) in Tris buffer (10 mM Tris-HCl, pH 7.4) were incubated for 90 min at 37 °C with 2-fold serial peptide dilutions. Peptide concentrations ranged from 0 to 2 μM. After incubation, the number of viable cells was determined by plating aliquots (100 μL) in duplicate on plates (SDA for C. albicans, TSA for P. aeruginosa, and M17G agarified medium for L. lactis) that had been dried for 30 min at room temperature in a laminar flow hood. Plates were incubated for 24–48 h at 30 °C (C. albicans and L. lactis) or 24 h at 37 °C (P. aeruginosa). Dilutions yielding 50–200 colonies were counted. Cell viability values, expressed as colony-forming units (CFUs), were calculated relative to the incubation without added peptides and represent the means ± standard deviation (SD) from duplicates of three independent experiments. For inhibition assays, unless otherwise noted, cell suspensions were preincubated (15 min at 37 °C) with the appropriate inhibitor prior to the addition of peptides, but the inhibitor was present throughout the incubation period with the peptide (90 min at 37 °C). Other specific experimental conditions are described as appropriate. […]

[2] = system: Candida albicans ATCC 10231; test: Antimicrobial spread-plate (CFU) killing assay, C. albicans; type: cell-based
Description: To determine whether the above microbicidal concentrations exert a permeabilizing effect on fungal and bacterial membranes, the influx of the fluorescent nucleic acid-binding dye propidium iodide (PI) in cells incubated with the peptides was assessed. In cells, dye uptake reflects membrane permeabilization, as PI itself cannot permeate through an intact phospholipid bilayer. […] To select an antimicrobial but non-permeabilizing concentration of each peptide for further assays, we defined as a non-permeabilizing inhibitory concentration (NPIC) the antimicrobial inhibitory concentration (≤10% viable cells) that permeabilized ≤ 10% of cells incubated (90 min at 37 °C) in buffer solution.
Microbial susceptibility to the peptides was determined in a spread-plate assay as described previously. Briefly, cell suspensions (10^6 cells/mL) in Tris buffer (10 mM Tris-HCl, pH 7.4) were incubated for 90 min at 37 °C with 2-fold serial peptide dilutions. Peptide concentrations ranged from 0 to 2 μM. After incubation, the number of viable cells was determined by plating aliquots (100 μL) in duplicate on plates (SDA for C. albicans, TSA for P. aeruginosa, and M17G agarified medium for L. lactis) that had been dried for 30 min at room temperature in a laminar flow hood. Plates were incubated for 24–48 h at 30 °C (C. albicans and L. lactis) or 24 h at 37 °C (P. aeruginosa). Dilutions yielding 50–200 colonies were counted. Cell viability values, expressed as colony-forming units (CFUs), were calculated relative to the incubation without added peptides and represent the means ± standard deviation (SD) from duplicates of three independent experiments. For inhibition assays, unless otherwise noted, cell suspensions were preincubated (15 min at 37 °C) with the appropriate inhibitor prior to the addition of peptides, but the inhibitor was present throughout the incubation period with the peptide (90 min at 37 °C). Other specific experimental conditions are described as appropriate. In some experiments, the concentrations of human lactoferrin against C. albicans (5 μM), P. aeruginosa (1 μM), and L. lactis (0.065 μM) were used in the control assays. In various viability assays, BM2 peptide (0.25 μM), CCCP (50 μM), colistin (4 μg/mL), nystatin (50 μM), oligomycin A (16 μg/mL), piericidin A (32 μM), and TEA (10 mM) were used.

[3] = design: method as in 19 sources, ref 24; PMID 3290255; doi:10.1172/JCI113527; 24. Lehrer R.I. Ganz T. Szklarek D. Selsted M.E. Modulation of the in vitro candidacidal activity of human neutrophil defensins by target cell metabolism and divalent cations J. Clin. Invest. 1988 81 || [47]; PMID 11083633; doi:10.1128/AAC.44.12.3310-3316.2000; 47. Edgerton M. Koshlukova S.E. Araujo M.W. Patel R.C. Dong J. Bruenn J.A. Salivary histatin 5 and human neutrophil defensin 1 kill Candida albicans via shared pathways Antimicrob. Agents Chemother. 2 ||| ref 20 = [20]; PMID 17074797; doi:10.1128/AAC.00478-06; 20. Vylkova S. Nayyar N. Li W. Edgerton M. Human beta-defensins kill Candida albicans in an energy-dependent and salt-sensitive manner without causing membrane disruption Antimicrob. Agents Chemother. ||| ref 24, 62 (HNP-1); 62, 63 (HNP-4); 20 (hBD-2); 12, 20 (hBD-3); 34, 35, 64 cidal and 65, 66 static (lactoferrin) ||| ref 26 (HNP-1); 12 (HNP-4); 11 (hBD-2, hBD-3); 43, 67 (lactoferrin) ||| ref 14 (HNP-1); 23 (HNP-4); Yes 11, 13 / No 20 (hBD-2); No 20 / Yes 11 (hBD-3); 31, 34, 42 (lactoferrin) ||| ...; conditions: Table 2, cited from earlier work
[4] = system: C. albicans cells; test: Extracellular potassium measurement (K+-efflux, ICP-MS); type: cell-based, Candida albicans; conditions: peptides at NPIC / microbicidal concentrations; 10^7 cells/mL, 90 min at 37 °C; steady state compared with maximum intracellular K+ of untreated cells
Description: Potassium measurements were performed via inductively coupled plasma mass spectrometry using an Agilent 7700x ICP-MS (Agilent Technologies, Santa Clara, CA, USA). C. albicans cells were cultured in SDB for 16–20 h at 30 °C. The cells were then subcultured in the same media to the mid-logarithmic growth phase and rapidly washed in sterile, deionized, double-distilled water. The cells (10^7 cells/mL) were immediately incubated with the peptides (NPIC) for 90 min at 37 °C. The tubes were centrifuged at 1100× g for 10 min and the supernatants were collected and stored at 4 °C until analysis. The percentage of cytosolic potassium released from cell suspensions treated with nystatin (50 μM) was determined in positive control assays. Total cellular K^+-content (100% value) was measured in the supernatant of cell suspensions previously treated with 0.5% (v/v) HClO4 alone, heated for 1 h at 95 °C, and centrifuged to remove cell debris. Results are expressed as the percentage (means ± SD) of K^+-release relative to the total cellular K^+-content from duplicates of at least three independent assays.

B1: human lactoferrin: Recombinant human apo-lactoferrin (hLf), 691 amino acid γ-core protein that inhibits microbial PM H+-ATPases; control (protein, UniProt P02788 20-710, looked up)
Lactotransferrin: GRRRSVQWCAVSQPEATKCFQWQRNMRKVRGPPVSCIKRDSPIQCIQAIAENRADAVTLDGGFIYEAGLAPYKLRPVAAEVYGTERQPRTHYYAVAVVKKGGSFQLNELQGLKSCHTGLRRTAGWNVPIGTLRPFLNWTGPPEPIEAAVARFFSASCVPGADKGQFPNLCRLCAGTGENKCAFSSQEPYFSYSGAFKCLRDGAGDVAFIRESTVFEDLSDEAERDEYELLCPDNTRKPVDKFKDCHLARVPSHAVVARSVNGKEDAIWNLLRQAQEKFGKDKSPKFQLFGSPSGQKDLLFKDSAIGFSRVPPRIDSGLYLGSGYFTAIQNLRKSEEEVAARRARVVWCAVGEQELRKCNQWSGLSEGSVTCSSASTTEDCIALVLKGEADAMSLDGGYVYTAGKCGLVPVLAENYKSQQSSDPDPNCVDRPVEGYLAVAVVRRSDTSLTWNSVKGKKSCHTAVDRTAGWNIPMGLLFNQTGSCKFDEYFSQSCAPGSDPRSNLCALCIGDEQGENKCVPNSNERYYGYTGAFRCLAENAGDVAFVKDVTVLQNTDGNNNEAWAKDLKLADFALLCLDGKRKPVTEARSCHLAMAPNHAVVSRMDKVERLKQVLLHQQAKFGRNGSDCPDKFCLFQSETKNLLFNDNTECLARLHGKTTYEKYLGPQYVAGITNLKKCSTSPLLEACEFLRK
modifications: apo form
notes: control
cell viability of L. lactis [1]: 13% ± 5%
effect of high extracellular K+ on candidacidal activity ([2]; 50 mM KCl, defensins at NPIC, hLf 5 μM, BM2 0.25 μM, nystatin 50 μM): significantly decreased
non-permeabilizing inhibitory concentration (NPIC), C. albicans ([2]; antimicrobial concentration (≤10% viable cells) that permeabilized ≤10% of cells, 10^6 cells/mL, Tris buffer pH 7.4, 90 min at 37 °C, from Figure 1 data, duplicates of three experiments): 5 µM
effect of piericidin A on candidacidal activity ([2]; cells preincubated 15 min at 37 °C with 32 µM piericidin A, then peptides (NPIC) 90 min): significantly (p < 0.001) inhibited
effect of oligomycin A on candidacidal activity ([2]; preincubated 15 min at 37 °C with 16 μg/mL oligomycin A, peptides at NPIC): significantly reduced
effect of Tok1p inhibition (TEA) on candidacidal activity ([2]; preincubation 15 min at 37 °C with 10 mM TEA+, peptides at NPIC): reduced
Cell death inhibitors, intracellular: Azide ([3]; 24 (HNP-1), 20 (hBD-2, hBD-3), 34 (lactoferrin)): No
Antimicrobial range ([3]; Gm+ Gram-positive bacteria, Gm− Gram-negative bacteria, F fungi, V viruses, P protozoa, no reference given): Gm +,Gm −,F,V,P
Cell death inhibitors, extracellular: Tok1p inhibitors (TEA) [3]: Yes
Cell death inhibitors, intracellular: Oligomycin A [3]: Yes
Cell death inhibitors, intracellular: Piericidin A [3]: Yes
Partial K^+-efflux [3]: Yes
Membrane permeabilization ([3]; ref 14 (HNP-1), 23 (HNP-4), Yes 11, 13 / No 20 (hBD-2), No 20 / Yes 11 (hBD-3), 31, 34, 42 (lactoferrin)): No
Cell death inhibitors, extracellular: Ca^2+ or Mg^2+ ([3]; ref 24 (HNP-1), 20 (hBD-2, hBD-3), 43 (lactoferrin)): Yes
Cell death inhibitors, intracellular: CCCP or DNP ([3]; ref 24 (HNP-1), 34 (lactoferrin)): Yes
Cell death inhibitors, extracellular: Anoxia ([3]; ref 24 (HNP-1), 34, 35 (lactoferrin)): Yes
Membrane depolarization ([3]; ref 26 (HNP-1), 12 (HNP-4), 11 (hBD-2, hBD-3), 43, 67 (lactoferrin)): Yes
ATP increment ([3]; ref 47 (HNP-1), 35 (lactoferrin)): Yes
Cell death inhibitors, extracellular: K^+ or Na^+ ([3]; ref 68 (HNP-1), 69 (HNP-4), 20 (hBD-2), No 11, 12 / Yes 20 (hBD-3), 31, 36, 43 (lactoferrin)): Yes
K^+-efflux pattern in C. albicans [4]: partial K^+-efflux

— paper PMC11242853, “The Antimicrobial Activity of Human Defensins at Physiological Non-Permeabilizing Concentrations Is Caused by the Inhibition of the Plasma Membrane H^+-ATPases” (International Journal of Molecular Sciences, 2024)
